Results as given in US20260167699A1 (Chugai, published 2026).
Positions count from the first letter of the chain named. Names and notes keep the numbering of the source.

T1: FcγRIIa(R) (human, UniProt P12318 34-217)
T1 construct: extracellular domain; also called 2aR
T1 sequence: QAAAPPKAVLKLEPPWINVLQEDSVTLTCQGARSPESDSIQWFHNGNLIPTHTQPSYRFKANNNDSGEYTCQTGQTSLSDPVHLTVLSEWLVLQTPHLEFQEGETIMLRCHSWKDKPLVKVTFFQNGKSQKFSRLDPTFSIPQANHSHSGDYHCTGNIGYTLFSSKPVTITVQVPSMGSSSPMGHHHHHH

T2: FcγRIIb (human, UniProt P31994 43-217)
T2 construct: extracellular domain; also called 2b
T2 sequence: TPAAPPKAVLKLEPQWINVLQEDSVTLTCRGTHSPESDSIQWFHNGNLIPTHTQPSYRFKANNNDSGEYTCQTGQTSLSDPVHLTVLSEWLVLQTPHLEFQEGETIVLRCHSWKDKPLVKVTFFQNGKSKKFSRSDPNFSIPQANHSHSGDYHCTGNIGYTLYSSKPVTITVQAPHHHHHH

T3: FcγRIIa(H) (human, UniProt P12318 34-217)
T3 construct: extracellular domain; also called 2aH
T3 sequence: T1 sequence with R134H

B1: GpH7-A5/GpH7-B3 variant S337_15Y/GpL16-k0 (antibody, human IgG1, kappa)
heavy 1: not shown
heavy 2: not shown
light: DIVMTQSPLSLPVTPGEPASISCQASESLVHSNRNTYLHWYLQKPGQSPQLLIYKVSNRFSGVPDRFSGSGSGTDFTLKISRVEAEDVGVYYCSQNTHVPPTFGQGTKVEIERTVAAPSVFIFPPSDEQLKSGTASVVCLLNNFYPREAKVQWKVDNALQSGNSQESVTEQDSKDSTYSLSSTLTLSKADYEKHKVYACEVTHQGLSSPVTKSFNRGEC
notes: heterodimerized anti-glypican 3 IgG1, only the GpH7-B3 chain mutated; also called He Ab
B2: GpH7-A5/GpH7-B3 variant S337_08L/GpL16-k0 (antibody, human IgG1, kappa)
heavy 1: not shown
heavy 2: not shown
light: B1 light
notes: as for B1
B3: GpH7-A5/GpH7-B3 variant S337_16H/GpL16-k0 (antibody, human IgG1, kappa)
heavy 1: not shown
heavy 2: not shown
light: B1 light
notes: as for B1
B4: GpH7-A5/GpH7-B3 variant S337_19Q/GpL16-k0 (antibody, human IgG1, kappa)
heavy 1: not shown
heavy 2: not shown
light: B1 light
notes: as for B1
B5: GpH7-A5/GpH7-B3 variant S337_11K/GpL16-k0 (antibody, human IgG1, kappa)
heavy 1: not shown
heavy 2: not shown
light: B1 light
notes: as for B1
B6: GpH7-A5/GpH7-B3 variant S337_20W/GpL16-k0 (antibody, human IgG1, kappa)
heavy 1: not shown
heavy 2: not shown
light: B1 light
notes: as for B1
B7: GpH7-A5/GpH7-B3 variant S337_14T/GpL16-k0 (antibody, human IgG1, kappa)
heavy 1: not shown
heavy 2: not shown
light: B1 light
notes: as for B1
B8: GpH7-A5/GpH7-B3 variant S337_07I/GpL16-k0 (antibody, human IgG1, kappa)
heavy 1: not shown
heavy 2: not shown
light: B1 light
notes: as for B1
B9: GpH7-A5/GpH7-B78/GpL16-k0 (antibody, human IgG1, kappa)
heavy 1: not shown
heavy 2: QVQLVQSGAEVKKPGASVTVSCKASGYTFTDYEMHWIRQPPGEGLEWIGAIDPKTGDTAYSESFQDRVTLTADKSTSTAYMELSSLTSEDTAVYYCTRFYSYTYWGQGTLVTVSSASTKGPSVFPLAPSSKSTSGGTAALGCLVKDYFPEPVTVSWNSGALTSGVHTFPAVLQSSGLYSLSSVVTVPSSSLGTQTYICNVNHKPSNTKVDKKVEPKSCDKTHTCPPCPAPELLGGPDVFLFPPKPKDTLMISRTPEVTCVVVDVSHEDPEVKFNWYVDGVEVHNAKTKPREEQYNSTYRVVSVLTVLHQDWLNGKEYKCKVSNKALPLPEEKTISKAKGQPREPQVYTLPPSRDELTKNQVSLTCLVKGFYPSDIAVEWESNGQPENNYKTTPPVLDSDGSFFLYSKLTVDKSRWQQGNVFSCSVMHEALHNHYTQESLSLSP
light: B1 light
notes: heterodimerized anti-glypican 3 IgG1; S239D/A330L/I332E in one H chain
B10: GpH7-G1d/GpL16-k0 (antibody, human IgG1, kappa)
heavy: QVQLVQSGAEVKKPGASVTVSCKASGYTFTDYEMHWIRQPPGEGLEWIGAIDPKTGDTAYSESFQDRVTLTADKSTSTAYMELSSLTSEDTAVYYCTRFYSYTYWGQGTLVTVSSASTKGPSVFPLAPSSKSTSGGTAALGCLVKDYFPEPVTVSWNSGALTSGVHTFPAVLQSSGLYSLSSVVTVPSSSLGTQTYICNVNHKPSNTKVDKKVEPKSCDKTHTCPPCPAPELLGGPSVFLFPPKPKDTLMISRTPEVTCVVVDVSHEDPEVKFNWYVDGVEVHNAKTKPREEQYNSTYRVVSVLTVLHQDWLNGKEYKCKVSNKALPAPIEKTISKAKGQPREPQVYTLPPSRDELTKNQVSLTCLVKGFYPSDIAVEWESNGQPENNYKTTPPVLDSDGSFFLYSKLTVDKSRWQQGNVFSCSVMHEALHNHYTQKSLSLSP
light: B1 light
notes: anti-glypican 3 IgG1, C-terminal Gly and Lys of the H chain deleted; also called naturally occurring IgG1
B11: GpH7-A5/GpH7-B3/GpL16-k0 (antibody, human IgG1, kappa)
heavy 1: not shown
heavy 2: not shown
light: B1 light
notes: also called HeCon Ab
B12: GpH7-TA7/GpH7-B78/GpL16-k0 (antibody, human IgG1, kappa)
heavy 1: B9 heavy 2 with L232Y, G234W, D237S, S296A, L328A, E330I, D354K, H433R, E437K
heavy 2: B9 heavy 2
light: B1 light
notes: heterodimerized anti-glypican 3 IgG1; L234Y/G236W/S298A in one H chain, S239D/A330L/I332E in the other
B13: GpH7-TA7/GpH7-B3/GpL16-k0 (antibody, human IgG1, kappa)
heavy 1: B9 heavy 2 with L232Y, G234W, D237S, S296A, L328A, E330I, D354K, H433R, E437K
heavy 2: not shown
light: B1 light
notes: heterodimerized anti-glypican 3 IgG1; L234Y/G236W/S298A in one H chain
B14: GpH7-A57/GpH7-B78/GpL16-k0 (antibody, human IgG1, kappa)
heavy 1: B9 heavy 2 with D354K, H433R, E437K
heavy 2: B9 heavy 2
light: B1 light
notes: anti-glypican 3 IgG1 called homodimerized: S239D/A330L/I332E in both H chains
B15: GpH7-TA7/GpH7-TA45/GpL16-k0 (antibody, human IgG1, kappa)
heavy 1: B9 heavy 2 with L232Y, G234W, D237S, S296A, L328A, E330I, D354K, H433R, E437K
heavy 2: B9 heavy 2 with L232Y, G234W, D237S, S296A, L328A, E330I
light: B1 light
notes: anti-glypican 3 IgG1 called homodimerized: L234Y/G236W/S298A in both H chains
B16: H240-Kn061/H240-Hl134/L73-k0 (antibody, human IgG1, kappa)
heavy 1: QDQLVQSGAEVKKPGASVKVSCKASGFNIKDTYIQWVRQAPGQGLEWMGRIDPLRKQTKYREKFEGRVTITADTSTNTAYMELSSLRSEDTAVYYCVRSGREFDYWGQGTLVTVSSASTKGPSVFPLAPSSKSTSGGTAALGCLVKDYFPEPVTVSWNSGALTSGVHTFPAVLQSSGLYSLSSVVTVPSSSLGTQTYICNVNHKPSNTKVDKKVEPKSCDKTHTCPPCPAPEYYWGPSVFLFPPKPKDTLMISRTPEVTCVVVDVSDEDPEVKFNWYVDGVEVHNAKTKPREEQYNATYRVVSVLTVLHQDWLNGKEYKCKVSNKALPAPIEKTISKAKGQPREPQVCTLPPSRDELTKNQVSLWCLVKGFYPSDIAVEWESNGQPENNYKTTPPVLDSDGSFFLYSKLTVDKSRWQQGNVFSCSVMHEALHNHYTQKSLSLSP
heavy 2: B16 heavy 1 with C348Y, D355C, W365S, L367A, Y406V
light: DIQMTQSPSSLSASVGDRVTITCRASQDIHKYIAWYQQKPGQAPRLLIQYTSTLQPGVPSRFSGSGSGTDYTFTISSLQPEDIATYYCLQYEQLRTFGGGTKVEIKRTVAAPSVFIFPPSDEQLKSGTASVVCLLNNFYPREAKVQWKVDNALQSGNSQESVTEQDSKDSTYSLSSTLTLSKADYEKHKVYACEVTHQGLSSPVTKSFNRGEC
notes: anti-epiregulin IgG1 called homodimerized: L234Y/L235Y/G236W/H268D/S298A in both H chains; also called H240-Kn061/H240-HI134/L73-k0
B17: H240-Kn132/H240-Hl071/L73-k0 (antibody, human IgG1, kappa)
heavy 1: B16 heavy 1 with Y233L, Y234L, W235G, D267H, A297S, K325D, A329M, K333E
heavy 2: QDQLVQSGAEVKKPGASVKVSCKASGFNIKDTYIQWVRQAPGQGLEWMGRIDPLRKQTKYREKFEGRVTITADTSTNTAYMELSSLRSEDTAVYYCVRSGREFDYWGQGTLVTVSSASTKGPSVFPLAPSSKSTSGGTAALGCLVKDYFPEPVTVSWNSGALTSGVHTFPAVLQSSGLYSLSSVVTVPSSSLGTQTYICNVNHKPSNTKVDKKVEPKSCDKTHTCPPCPAPELLGGPSVFLFPPKPKDTLMISRTPEVTCVVVDVSHEDPEVKFNWYVDGVEVHNAKTKPREEQYNSTYRVVSVLTVLHQDWLNGKEYKCKVSNDALPMPIEETISKAKGQPREPQVYTLPPSRCELTKNQVSLSCAVKGFYPSDIAVEWESNGQPENNYKTTPPVLDSDGSFFLVSKLTVDKSRWQQGNVFSCSVMHEALHNHYTQKSLSLSP
light: B16 light
notes: anti-epiregulin IgG1 called homodimerized: K326D/A330M/K334E in both H chains; also called H240-Kn132/H240-HI071/L73-k0

target: T1, FcγRIIa(R); assay: SPR (Biacore); He Ab binding / HeCon Ab (GpH7-A5/GpH7-B3/GpL16-k0) binding x100;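 note: antibody captured on the sensor chip, soluble FcγR flowed over it in HBS-EP+ running buffer, 25 °C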
Procedure: (§1) The antibody of interest was analyzed for its interaction with FcγR using a BiaCore™ T100, BiaCore™ A100, or BiaCore™ 4000 surface plasmon resonance system (GE Healthcare Japan Corp.). The running buffer used was HBS-EP+ (GE Healthcare Japan Corp.). The assay temperature was set to 25° C. The sensor chips used were: a chip prepared by immobilizing antigenic peptides onto Series S Sensor Chip CM5 (GE Healthcare Japan Corp.) by the amine coupling method; a chip prepared by immobilizing antigenic peptides biotinylated in advance onto Series S Sensor Chip SA (certified) (GE Healthcare Japan Corp.) through their interaction; a chip prepared by immobilizing protein L (ACTIGEN, BioVision, Inc.) onto Series S Sensor Chip CM5 (GE Healthcare Japan Corp.); and a chip prepared by immobilizing protein A/G (Thermo Fisher Scientific K.K.) onto Series S Sensor Chip CM5 (GE Healthcare Japan Corp.). The antibody of interest was captured onto any of these chips and allowed to interact with FcγR diluted with a running buffer. The antibody captured on the chip was washed off through the reaction of 10 mM glycine-HCl (pH 1.5) to regenerate the chip, which was repetitively used.

| Binder | He/Con 2aR [%] |
| --- | --- |
| B1 | 107 |
| B2 | 109 |
| B3 | 111 |
| B4 | 108 |
| B5 | 105 |
| B6 | 112 |
| B7 | 112 |
| B8 | 111 |

target: T2, FcγRIIb; assay: as above
Procedure: as §1

| Binder | He/Con 2b [%] |
| --- | --- |
| B1 | 109 |
| B2 | 109 |
| B3 | 114 |
| B4 | 109 |
| B5 | 103 |
| B6 | 119 |
| B7 | 114 |
| B8 | 113 |

target: T3, FcγRIIa(H); assay: as above
Procedure: as §1

| Binder | He/Con 2aH [%] |
| --- | --- |
| B1 | 106 |
| B2 | 106 |
| B3 | 108 |
| B4 | 104 |
| B5 | 102 |
| B6 | 108 |
| B7 | 110 |
| B8 | 107 |

target: T4, FcγRIa (human, UniProt P12314 16-292); assay: as above
T4 construct: extracellular domain; also called 1a
T4 sequence (P12314 other isoform, or with tags, fused parts or gaps): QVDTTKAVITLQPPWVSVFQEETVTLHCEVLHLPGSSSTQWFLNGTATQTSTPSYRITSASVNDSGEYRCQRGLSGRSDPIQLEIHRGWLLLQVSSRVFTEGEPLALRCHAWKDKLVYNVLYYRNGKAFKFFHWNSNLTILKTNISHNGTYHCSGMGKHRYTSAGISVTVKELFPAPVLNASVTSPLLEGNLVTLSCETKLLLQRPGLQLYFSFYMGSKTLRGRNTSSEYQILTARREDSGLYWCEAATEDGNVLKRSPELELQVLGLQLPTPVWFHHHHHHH
Procedure: as §1

| Binder | He/Con 1a [%] |
| --- | --- |
| B1 | 101 |
| B2 | 102 |
| B3 | 101 |
| B4 | 101 |
| B5 | 101 |
| B6 | 102 |
| B7 | 102 |
| B8 | 102 |

target: T5, FcγRIIIa extracellular domain with C-terminal His tag (allotype not given) (human, UniProt P08637 17-208); assay: SPR; KD of GpH7-G1d/GpL16-k0 for FcγRIIIa divided by KD of this antibody
T5 construct: extracellular domain; also called 3a
T5 sequence (P08637 other isoform, or with tags, fused parts or gaps): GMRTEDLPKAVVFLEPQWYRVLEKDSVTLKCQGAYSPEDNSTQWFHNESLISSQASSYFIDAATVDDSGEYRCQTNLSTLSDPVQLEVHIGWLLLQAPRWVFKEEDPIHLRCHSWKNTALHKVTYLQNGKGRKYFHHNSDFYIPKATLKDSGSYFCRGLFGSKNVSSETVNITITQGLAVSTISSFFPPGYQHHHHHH

| Binder | KD ratio1 [fold] |
| --- | --- |
| B9 | 23 |
| B10 | 1 |
| B11 | 0.75 |
| B12 | 261 |
| B13 | 3.8 |
| B14 | 199 |
| B15 | 0.37 |

target: T5, FcγRIIIa extracellular domain with …; assay: SPR; KD of GpH7-A5/GpH7-B3/GpL16-k0 for FcγRIIIa divided by KD of this antibody
Procedure: as §1

| Binder | KD ratio2 [fold] |
| --- | --- |
| B9 | 30 |
| B11 | 1 |
| B12 | 347 |
| B13 | 5.1 |
| B14 | 263 |
| B15 | 0.49 |

target: T5, FcγRIIIa extracellular domain with …; assay: SPR (Biacore), captured antibody, FcγRIIIa analyte, 1:1 Langmuir fit
Procedure: as §1

| Binder | Kd [nM] |
| --- | --- |
| B9 | 54 |
| B10 | 1200 |
| B11 | 1600 |
| B12 | 4.7 |
| B13 | 320 |
| B14 | 6.2 |
| B15 | 3300 |

target: T6, FcγRIIIa(F) extracellular domain with C-terminal His tag (human, UniProt P08637 17-208); assay: SPR (Biacore), captured antibody, FcγR analyte, 1:1 Langmuir fit;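 note: surface plasmon resonance at 25 °C in HBS-EP+ running buffer, antibody captured on sensor chip, FcγR flowed over as analyte in the same buffer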
T6 construct: extracellular domain; polymorphic form F158; also called FcγRIIIa F type

| Binder | Kd [nM] |
| --- | --- |
| B16 | 660 |
| B17 | 77 |

target: T7, FcγRIIIa(V) extracellular domain with C-terminal His tag (human, UniProt P08637 17-208); assay: as above
T7 construct: extracellular domain; polymorphic form V158; also called FcγRIIIa V type
T7 sequence (P08637 other isoform, or with tags, fused parts or gaps): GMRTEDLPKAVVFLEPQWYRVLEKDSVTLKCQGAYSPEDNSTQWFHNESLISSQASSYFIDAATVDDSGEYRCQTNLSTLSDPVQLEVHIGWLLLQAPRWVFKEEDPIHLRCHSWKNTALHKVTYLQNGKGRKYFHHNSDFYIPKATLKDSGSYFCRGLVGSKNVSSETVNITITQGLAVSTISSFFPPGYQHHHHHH

| Binder | Kd [nM] |
| --- | --- |
| B16 | 86 |
| B17 | 16 |
